The target of this experiment is GST-NRX (cytoplasmic domain of Neurexin) (Drosophila) (UniProt Q94887). Put plainly: pull-down.
Chain of UniProt Q94887 (Q94887 1239-1284): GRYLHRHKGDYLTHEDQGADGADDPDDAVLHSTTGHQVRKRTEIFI

Substance “unlabeled Coracle (cDNA3 isoform, recombinant) (natural protein)” showed a % relative binding of 32P-COR to NRX with the competitor of 36.6%.

For “32P-labeled Coracle (cDNA3 isoform, recombinant) (natural protein)”, the % relative binding came out at 100%.

Values taken from paper PMC2132682.
